First the molecules themselves.
B1: CE115HA000 G98H (antibody, name in Kabat numbering, V domains shown)
VH: QVQLVESGGGVVQPGRSLRLSCAASGFTFSNAWMHWVRQAPGKGLEWVAQIKAKSNNYATYYAESVKGRFTISRDDSKNSLYLQMNSLKTEDTAVYYCRYVHYHAYYGVDAWGQGTTVTVSS
VL: DIVMTQSPLSLPVTPGEPASISCRSSQSLVHSNRNTYLHWYQQKPGQAPRLLIYKVSNRFSGVPDRFSGSGSGTDFTLKISRVEAEDVGVYYCGQGTQVPYTFGQGTKLEIK
B2: CE115HA000 H35G (antibody, name in Kabat numbering, V domains shown)
VH: QVQLVESGGGVVQPGRSLRLSCAASGFTFSNAWMGWVRQAPGKGLEWVAQIKAKSNNYATYYAESVKGRFTISRDDSKNSLYLQMNSLKTEDTAVYYCRYVHYGAYYGVDAWGQGTTVTVSS
VL: DIVMTQSPLSLPVTPGEPASISCRSSQSLVHSNRNTYLHWYQQKPGQAPRLLIYKVSNRFSGVPDRFSGSGSGTDFTLKISRVEAEDVGVYYCGQGTQVPYTFGQGTKLEIK
B3: CE115HA000 G100bS (antibody, name in Kabat numbering, V domains shown)
VH: QVQLVESGGGVVQPGRSLRLSCAASGFTFSNAWMHWVRQAPGKGLEWVAQIKAKSNNYATYYAESVKGRFTISRDDSKNSLYLQMNSLKTEDTAVYYCRYVHYGAYYSVDAWGQGTTVTVSS
VL: DIVMTQSPLSLPVTPGEPASISCRSSQSLVHSNRNTYLHWYQQKPGQAPRLLIYKVSNRFSGVPDRFSGSGSGTDFTLKISRVEAEDVGVYYCGQGTQVPYTFGQGTKLEIK
B4: CE115HA000 G100bY (antibody, name in Kabat numbering, V domains shown)
VH: QVQLVESGGGVVQPGRSLRLSCAASGFTFSNAWMHWVRQAPGKGLEWVAQIKAKSNNYATYYAESVKGRFTISRDDSKNSLYLQMNSLKTEDTAVYYCRYVHYGAYYYVDAWGQGTTVTVSS
VL: DIVMTQSPLSLPVTPGEPASISCRSSQSLVHSNRNTYLHWYQQKPGQAPRLLIYKVSNRFSGVPDRFSGSGSGTDFTLKISRVEAEDVGVYYCGQGTQVPYTFGQGTKLEIK
B5: CE115HA000 H35F (antibody, name in Kabat numbering, V domains shown)
VH: QVQLVESGGGVVQPGRSLRLSCAASGFTFSNAWMFWVRQAPGKGLEWVAQIKAKSNNYATYYAESVKGRFTISRDDSKNSLYLQMNSLKTEDTAVYYCRYVHYGAYYGVDAWGQGTTVTVSS
VL: DIVMTQSPLSLPVTPGEPASISCRSSQSLVHSNRNTYLHWYQQKPGQAPRLLIYKVSNRFSGVPDRFSGSGSGTDFTLKISRVEAEDVGVYYCGQGTQVPYTFGQGTKLEIK
B6: CE115HA000 G98T (antibody, name in Kabat numbering, V domains shown)
VH: QVQLVESGGGVVQPGRSLRLSCAASGFTFSNAWMHWVRQAPGKGLEWVAQIKAKSNNYATYYAESVKGRFTISRDDSKNSLYLQMNSLKTEDTAVYYCRYVHYTAYYGVDAWGQGTTVTVSS
VL: DIVMTQSPLSLPVTPGEPASISCRSSQSLVHSNRNTYLHWYQQKPGQAPRLLIYKVSNRFSGVPDRFSGSGSGTDFTLKISRVEAEDVGVYYCGQGTQVPYTFGQGTKLEIK
B7: CE115HA000 G100bI (antibody, name in Kabat numbering, V domains shown)
VH: QVQLVESGGGVVQPGRSLRLSCAASGFTFSNAWMHWVRQAPGKGLEWVAQIKAKSNNYATYYAESVKGRFTISRDDSKNSLYLQMNSLKTEDTAVYYCRYVHYGAYYIVDAWGQGTTVTVSS
VL: DIVMTQSPLSLPVTPGEPASISCRSSQSLVHSNRNTYLHWYQQKPGQAPRLLIYKVSNRFSGVPDRFSGSGSGTDFTLKISRVEAEDVGVYYCGQGTQVPYTFGQGTKLEIK
B8: CE115HA000 H35D (antibody, name in Kabat numbering, V domains shown)
VH: QVQLVESGGGVVQPGRSLRLSCAASGFTFSNAWMDWVRQAPGKGLEWVAQIKAKSNNYATYYAESVKGRFTISRDDSKNSLYLQMNSLKTEDTAVYYCRYVHYGAYYGVDAWGQGTTVTVSS
VL: DIVMTQSPLSLPVTPGEPASISCRSSQSLVHSNRNTYLHWYQQKPGQAPRLLIYKVSNRFSGVPDRFSGSGSGTDFTLKISRVEAEDVGVYYCGQGTQVPYTFGQGTKLEIK
B9: CE115HA000 H35Q (antibody, name in Kabat numbering, V domains shown)
VH: QVQLVESGGGVVQPGRSLRLSCAASGFTFSNAWMQWVRQAPGKGLEWVAQIKAKSNNYATYYAESVKGRFTISRDDSKNSLYLQMNSLKTEDTAVYYCRYVHYGAYYGVDAWGQGTTVTVSS
VL: DIVMTQSPLSLPVTPGEPASISCRSSQSLVHSNRNTYLHWYQQKPGQAPRLLIYKVSNRFSGVPDRFSGSGSGTDFTLKISRVEAEDVGVYYCGQGTQVPYTFGQGTKLEIK
B10: CE115HA000 G98P (antibody, name in Kabat numbering, V domains shown)
VH: QVQLVESGGGVVQPGRSLRLSCAASGFTFSNAWMHWVRQAPGKGLEWVAQIKAKSNNYATYYAESVKGRFTISRDDSKNSLYLQMNSLKTEDTAVYYCRYVHYPAYYGVDAWGQGTTVTVSS
VL: DIVMTQSPLSLPVTPGEPASISCRSSQSLVHSNRNTYLHWYQQKPGQAPRLLIYKVSNRFSGVPDRFSGSGSGTDFTLKISRVEAEDVGVYYCGQGTQVPYTFGQGTKLEIK
B11: CE115HA000 H35L (antibody, name in Kabat numbering, V domains shown)
VH: QVQLVESGGGVVQPGRSLRLSCAASGFTFSNAWMLWVRQAPGKGLEWVAQIKAKSNNYATYYAESVKGRFTISRDDSKNSLYLQMNSLKTEDTAVYYCRYVHYGAYYGVDAWGQGTTVTVSS
VL: DIVMTQSPLSLPVTPGEPASISCRSSQSLVHSNRNTYLHWYQQKPGQAPRLLIYKVSNRFSGVPDRFSGSGSGTDFTLKISRVEAEDVGVYYCGQGTQVPYTFGQGTKLEIK
B12: CE115HA000 H35I (antibody, name in Kabat numbering, V domains shown)
VH: QVQLVESGGGVVQPGRSLRLSCAASGFTFSNAWMIWVRQAPGKGLEWVAQIKAKSNNYATYYAESVKGRFTISRDDSKNSLYLQMNSLKTEDTAVYYCRYVHYGAYYGVDAWGQGTTVTVSS
VL: DIVMTQSPLSLPVTPGEPASISCRSSQSLVHSNRNTYLHWYQQKPGQAPRLLIYKVSNRFSGVPDRFSGSGSGTDFTLKISRVEAEDVGVYYCGQGTQVPYTFGQGTKLEIK
B13: CE115HA000 H35K (antibody, name in Kabat numbering, V domains shown)
VH: QVQLVESGGGVVQPGRSLRLSCAASGFTFSNAWMKWVRQAPGKGLEWVAQIKAKSNNYATYYAESVKGRFTISRDDSKNSLYLQMNSLKTEDTAVYYCRYVHYGAYYGVDAWGQGTTVTVSS
VL: DIVMTQSPLSLPVTPGEPASISCRSSQSLVHSNRNTYLHWYQQKPGQAPRLLIYKVSNRFSGVPDRFSGSGSGTDFTLKISRVEAEDVGVYYCGQGTQVPYTFGQGTKLEIK
B14: CE115HA000 G98Q (antibody, name in Kabat numbering, V domains shown)
VH: QVQLVESGGGVVQPGRSLRLSCAASGFTFSNAWMHWVRQAPGKGLEWVAQIKAKSNNYATYYAESVKGRFTISRDDSKNSLYLQMNSLKTEDTAVYYCRYVHYQAYYGVDAWGQGTTVTVSS
VL: DIVMTQSPLSLPVTPGEPASISCRSSQSLVHSNRNTYLHWYQQKPGQAPRLLIYKVSNRFSGVPDRFSGSGSGTDFTLKISRVEAEDVGVYYCGQGTQVPYTFGQGTKLEIK
B15: CE115HA000 G100bE (antibody, name in Kabat numbering, V domains shown)
VH: QVQLVESGGGVVQPGRSLRLSCAASGFTFSNAWMHWVRQAPGKGLEWVAQIKAKSNNYATYYAESVKGRFTISRDDSKNSLYLQMNSLKTEDTAVYYCRYVHYGAYYEVDAWGQGTTVTVSS
VL: DIVMTQSPLSLPVTPGEPASISCRSSQSLVHSNRNTYLHWYQQKPGQAPRLLIYKVSNRFSGVPDRFSGSGSGTDFTLKISRVEAEDVGVYYCGQGTQVPYTFGQGTKLEIK
B16: CE115HA000 H35R (antibody, name in Kabat numbering, V domains shown)
VH: QVQLVESGGGVVQPGRSLRLSCAASGFTFSNAWMRWVRQAPGKGLEWVAQIKAKSNNYATYYAESVKGRFTISRDDSKNSLYLQMNSLKTEDTAVYYCRYVHYGAYYGVDAWGQGTTVTVSS
VL: DIVMTQSPLSLPVTPGEPASISCRSSQSLVHSNRNTYLHWYQQKPGQAPRLLIYKVSNRFSGVPDRFSGSGSGTDFTLKISRVEAEDVGVYYCGQGTQVPYTFGQGTKLEIK
B17: CE115HA000 H35N (antibody, name in Kabat numbering, V domains shown)
VH: QVQLVESGGGVVQPGRSLRLSCAASGFTFSNAWMNWVRQAPGKGLEWVAQIKAKSNNYATYYAESVKGRFTISRDDSKNSLYLQMNSLKTEDTAVYYCRYVHYGAYYGVDAWGQGTTVTVSS
VL: DIVMTQSPLSLPVTPGEPASISCRSSQSLVHSNRNTYLHWYQQKPGQAPRLLIYKVSNRFSGVPDRFSGSGSGTDFTLKISRVEAEDVGVYYCGQGTQVPYTFGQGTKLEIK
B18: CE115HA000 G100bF (antibody, name in Kabat numbering, V domains shown)
VH: QVQLVESGGGVVQPGRSLRLSCAASGFTFSNAWMHWVRQAPGKGLEWVAQIKAKSNNYATYYAESVKGRFTISRDDSKNSLYLQMNSLKTEDTAVYYCRYVHYGAYYFVDAWGQGTTVTVSS
VL: DIVMTQSPLSLPVTPGEPASISCRSSQSLVHSNRNTYLHWYQQKPGQAPRLLIYKVSNRFSGVPDRFSGSGSGTDFTLKISRVEAEDVGVYYCGQGTQVPYTFGQGTKLEIK
B19: CE115HA000 H35M (antibody, name in Kabat numbering, V domains shown)
VH: QVQLVESGGGVVQPGRSLRLSCAASGFTFSNAWMMWVRQAPGKGLEWVAQIKAKSNNYATYYAESVKGRFTISRDDSKNSLYLQMNSLKTEDTAVYYCRYVHYGAYYGVDAWGQGTTVTVSS
VL: DIVMTQSPLSLPVTPGEPASISCRSSQSLVHSNRNTYLHWYQQKPGQAPRLLIYKVSNRFSGVPDRFSGSGSGTDFTLKISRVEAEDVGVYYCGQGTQVPYTFGQGTKLEIK
B20: CE115HA000 G98Y (antibody, name in Kabat numbering, V domains shown)
VH: QVQLVESGGGVVQPGRSLRLSCAASGFTFSNAWMHWVRQAPGKGLEWVAQIKAKSNNYATYYAESVKGRFTISRDDSKNSLYLQMNSLKTEDTAVYYCRYVHYYAYYGVDAWGQGTTVTVSS
VL: DIVMTQSPLSLPVTPGEPASISCRSSQSLVHSNRNTYLHWYQQKPGQAPRLLIYKVSNRFSGVPDRFSGSGSGTDFTLKISRVEAEDVGVYYCGQGTQVPYTFGQGTKLEIK

The target of the assay is T1, CD3ε homodimer protein (human, UniProt P07766 23-126, limits assumed, sulfo-tag or biotin label in some ECL assays).
T1 construct: also called human CD3ε homodimer protein; CD3 (CD3ε)
T1 sequence (P07766 23-126 limits assumed): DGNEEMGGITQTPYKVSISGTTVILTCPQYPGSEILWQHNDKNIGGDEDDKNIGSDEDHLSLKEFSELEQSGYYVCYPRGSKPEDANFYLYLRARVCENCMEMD
Nature of the assay: SPR, CD3ε homodimer on chip.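 Further: biacore SPR with antibody variants flowed as analyte over amine-coupled CD3ε homodimer on a CM chip, bound amount of each single-residue H chain variant over that of parent.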
Description: An appropriate amount of CD3ε homodimer protein was immobilized onto Sensor chip CM4 (GE Healthcare Japan Corp.) by the amine coupling method. Then, the antibody having an appropriate concentration was injected thereto as an analyte and allowed to interact with the CD3ε homodimer protein on the sensor chip. Then, the sensor chip was regenerated by the injection of 10 mmol/L glycine-HCl (pH 1.5). The assay was conducted at 25° C., and HBS-EP+ (GE Healthcare Japan Corp.) was used as a running buffer. […] Each parameter was calculated using Biacore T200 Evaluation Software (GE Healthcare Japan Corp.).
Specifically, when the amount of the antibody comprising CE115HA000 bound was defined as X and the amount of the H chain one-amino acid altered form bound was defined as Y, a value of Z (ratio of amounts bound)=Y/X was used.
On to B1, for which the “ratio of amounts bound vs CE115HA000” value came to 2.83.
Consider B2, for which the “ratio of amounts bound vs CE115HA000” value is 0.22.
B3: the “ratio of amounts bound vs CE115HA000” value turned out to be 0.52.
On to B4, for which the “ratio of amounts bound vs CE115HA000” value came out at 0.23.
The value for B5 was 0.21; that for B6 was 1; that for B7 was 0.37.
On to B8, for which the “ratio of amounts bound vs CE115HA000” value was found to be 0.2.
For the molecule B9, the “ratio of amounts bound vs CE115HA000” value stood at 0.13.
Take B10: the “ratio of amounts bound vs CE115HA000” value was 1.03.
With B11, the “ratio of amounts bound vs CE115HA000” value was determined as 0.11.
As to B12, the “ratio of amounts bound vs CE115HA000” value stood at 0.12.
For the molecule B13, the “ratio of amounts bound vs CE115HA000” value was found to be 0.15.
In the case of B14, the “ratio of amounts bound vs CE115HA000” value was determined as 1.23.
For the molecule B15, the “ratio of amounts bound vs CE115HA000” value was determined as 0.36.
For B16, the “ratio of amounts bound vs CE115HA000” value was determined as 0.14.
For B17, the “ratio of amounts bound vs CE115HA000” value was 0.35.
As to B18, the “ratio of amounts bound vs CE115HA000” value came out at 0.3.
In the case of B19, the “ratio of amounts bound vs CE115HA000” value is 0.29.
Turning to B20, the “ratio of amounts bound vs CE115HA000” value came to 2.22.
